Source: a protein production outcome set (Wang et al. 2014)

Experiment: label from the status in PepcDB records

In the case of “MELENIVANTVLLKAREGGGGNRKGKSKKWRQMLQFPHISQCEELRLSLERDYHSLCERQPIGRLLFREFCATRPELSRCVAFLDGVAEYEVTPDDKRKACGRQLTQNFLSHTGPDLIPEVPRQLVTNCTQRLEQGPCKDLFQELTRLTHEYLSVAPFADYLDSIYFNRFLQWKWLERQPVTKNTFRQYRVLGKGGFGEVCACQVRATGKMYACKKLEKKRIKKRKGEAMALNEKQILEKVNSRFVVSLAYAYETKDALCLVLTLMNGGDLKFHIYHMGQAGFPEARAVFYAAEICCGLEDLHRERIVYRDLKPENILLDDHGHIRISDLGLAVHVPEGQTIKGRVGTVGYMAPEVVKNERYTFSPDWWALGCLLYEMIAGQSPFQQRKKKIKREEVERLVKEVPEEYSERFSPQARSLCSQLLCKDPAERLGCRGGSAREVKEHPLFKKLNFKRLGAGMLEPPFKPDPQAIYCKDVLDIEQFSTVKGVELEPTDQDFYQKFATGSVPIPWQNEMVETECFQELNVFGLDGSVPPDLDWKGQPPAPPKKGLLQRLFSRQDCCGNCSDSEEELPTRL”, the protein production is reported as “failed”.
For “MDSQELKTLINYYCQERYFHHVLLVASEGIKRYGSDPVFRFYHAYGTLMEGKTQEALREFEAIKNKQDVSLCSLLALIYAHKMSPNPDREAILESDARVKEQRKGAGEKALYHAGLFLWHIGRHDKAREYIDRMIKISDGSKQGHVLKAWLDITRGKEPYTKKALKYFEEGLQDGNDTFALLGKAQCLEMRQNYSGALETMNQIIVNFPSFLPAFVKKMKLQLALQNWDQTVETAQRLLLQDSQNVEALRMQALYYVCREGDIEKASTKLENLGNALDAMEPQNAQLFYNITLAFSRTCGRSQLILQKIQTLLERAFSLNPQQSEFATELGYQMILQGRVKEALKWYKTAMTLDETSVSALVGFIQCQLIEGQLQDADQQLEFLNEIQQSIGKSAELIYLHAVLAMKKNKRQEEVINLLNDVLDTHFSQLEGLPLGIQYFEKLNPDFLLEIVMEYLSFCPMQVSNYGTYFQGCVYLMFYERT”, the protein production was “failed”.
With “MLAVFTKSVAGVKLFGMMYPVLERSENLPTDDSIDAIKEIAKALQSVLFKLHINGYSSLLHPLGVNNVDFILKFYVVKDGENDSLRVINVYHKLCGEAEDSWLEIVNNFRGEFSFISMMQRIEASLLLINAVKCYVVSDTLGNLFFRNDYNFGTGGSVCYVHIFGGHYLASGKGLRKLQLPLMETKMEPLIPDDIV” the protein production was “failed”.
For “MPLAVLERDGSFLGVLTPHSIVEVLLERERRLLEDARKINAEIRREADKAIEQLDIKAHYDTVTGLPNRQLFCDRLLQALAAHERDGNPVVLLFLDVDNFKSINDSLGHLVGDRLLRATAERIRTAVRDGDTVARIGGDEFTILLNGAKDTLNGALVAQKILDGLAQPFVFGAQQIVISVSIGIAVSPADGETMEQLLRNADTAMYHAKSRGKNNYQFFSPELNVQAYRRQEIERNLRCALLQGELGLRYAPRVDLRSGRIVALEVCPFWLSSELGDVPPDDFIPVAEETGLIVQIGIWAFRTACAHAAVWRTQGLADRCLSFRLSQRELDDPQFGDRIMSLLDGCGLEPENLQFELSERMLMTHAAHTLAVLQELSNRGIRFSVGDFGTGNASLRRLRRFPIDELKIDLSSVRDIEPDSDDAAVITAMIAMAKSLRMDVVAVGVETPEHVAFLLERGCRHGQGRLIGARLPPERIAALLAGDAVDLFVALEHHHHHH”, the protein production was “failed”.
With “MHVISTSKKTVLSDFADLETKSEYVHQNAEPTDFQFNGQRRVFVEVDKMAGLAVMRIKEKDGKTPEIQRVRKLTIDNAFCVACAKQSLEEIAVGQSGCVKLYNFRTAQLIHRFPADPQRSTVLYMDYNNTDEYIAAVRDGGDISILGTKTKQKTNTFTIDGDSTLVRFHPSKRFHLSIASYKGAVTVYDVQGMRKIFHASEAHSAPCRDISMCTSQPALLVSVGYDCKINIFDIRRNRAQASTDRLTYSHPLSTVALSECGTYLCAGNLKGELIAYDMRSTKAPLAVRSVHDAAVTRVAFVPVPSGDNQQNGSLNSSENATGLATEAPRVERAPSDELRKSIAANLLSTQNQLTSLGYGVSTPTIVRRDSFCEFLDAQGPRAVDRMSTRLGASYRDSFDWETLNRKPQPYETANRQSLCPPVASGPSSVDNSVNSSTTESLQQTLSGPLKDRSNISGDGKLMKIAETDELCEEQSANISVASSTGGGSDKENPPPVDAEMKRRLRLLSASRNSTPHHANITPQSSNPLLKPQQLLAKSSSGLSAQMDADWRKEFSELRDFVDQRCEKVERELEYVTFSNQRLLANKMTNYMDQQVENTREIRDALALLLQGDSFMREFSRLQNENEMLKAKLKFYQEQEQTESCGE” the protein production was “failed”.
For “MDRIDAMKVFVAAIDEGSLAGAARRLKRSPTAVSRALSFLEAHVGVELLHRTTRTLKLSEAGQRYAAACRRVLTDLEEADMLAGGERSAPRGMLTISSPPILGEEILRPILDDFLDLYPTVSVRLLLLDRFVNLVDEGVDIALRIGQLADSSLISTRLGGDVRRVVVASPRYLANHPRIEEPADLDKHQILAFTNFGLESWSFTPAKGSSVPRTIQFTPRCIVNSVRAAAASAAAGRGLTRLYSYHVAEYVRDGRLEIVLADAEHPPLPAHLIAPQGRMSVPKVRAFVDFAAPRLRSEFARMAAEAGTLT”, the protein production was “failed”.
In the case of “MSDQDVNPEHISDAQPAGTGLVLPGQTLPTTLYVIPIHNRPFFPAQVLPVIVNEEPWAETLELVAKTDHHSLALFFMDNPPEDPRHFDVNSLPEHGTLVRVHHASREGGKLQFVAQGLSRVRIRGWIKRHRPPFMVEVDYPKTPIDPSDEVKAYGMALINAIKELLPLNPLYSEELKNYLNRFSPNDPSPLTDFAAALTTAPGGELQEVLDTVPILKRMEKVLPLLRKEVEVARLQKELSAEVNRKIGEHQREFFLKEQLKIIQQELGITKDDKSADADEFRARLEGKVLPEQARKRIDEELNKLSILESGSPEYAVTRNYLDWATALPWGVYGKDKLDLKHARKVLDKHHAGLDDIKDRILEFLAVGSFKGEIAGSIVLLVGPPGVGKTSIGKSIAESLGRPFYRFSVGGMRDEAEIKGHRRTYIGALPGKLVQALKEVEVMNPVIMLDEIDKLGASYQGDPASALLETLDPEQNVEFLDHYLDLRLDLSKVLFVCTANTLDSIPGPLLDRMEVIRLSGYISEEKLAIAKRHLWPKQLEKAGVPKGRLSISDAALRAVIEGYAREAGVRQLEKQLGKLVRKSVVKLLEDPESKVKIGPRDLEDYLGMPVFRSEQVLSGIGVITGLAWTSMGGATLPIEATRIHTLNRGFKLTGQLGDVMKESAEIAYSYIGSHLKKYGGDPTFFDQAFVHLHVPEGATPKDGPSAGVTMASALLSLARNQVPKKGVAMTGELTLTGQVLPIGGVREKVIAARRQKIFELILPEANRGHFEELPDYLREGLTVHFAKRYGDVAKVLF”, the protein production is reported as “failed”.
For “EDKKGGTKPSNEAALTKTENLDFRLSFNKIKVTTDQNHFSGGTSIEQLKQWFGDPNKSEQRNAGNITLDSYTWVKDGAVINAQLYKNSTVARSISNFSFSREAKIGKEDYDELKIGESYKKVVEKLGEPDVLSQSMSSDKEEMQTVWSSGIKTKSSSATIELYFENGLLKNKTQKDLE”, the protein production was “not failed”.
For “MDESAALRAFQDALRTQRPEFGQFFLARLLGLDISYPDGQCLIVFEPQDFLFNPQGSLHGGIIATVMDISMGHLLNHVQGAGLTLEMKTQYLKAVRQGTVYCRGEFLQRGRSVSFLKSTLTDAQGEPLAMATSTWKALSPARAPGVDAAAR”, the protein production was “failed”.
For “MQQLSFLPGEMTPGERSLILRALQTLDRHXHEPGVAFTSTRAAREWLILNMAGLEREEFRVLYLNNQNQLIAGETXFTGTINRTEVHPREVIKRALYHNAAAVVLAHNHPSGEVTPSKADRLITERLVQALGLVDIRVPDHLIVGGNQVFSFAEHGLL”, the protein production was “failed”.
For “MENEGASTVCPLDPGSPLFLSGDGFEPVGVLFPHAVFHFPSKEKKEAYDFMDKVVDKHRRLCDERQRLGLKNESEVDVKNEGSTSNPEPAVKEPVPEPLP”, the protein production was “not failed”.
In the case of “MGLFSKRQIGNQYETLAKQYLQRQGLRFLDQNYLTKFGEIDLIFQQDETIVFVEVKYRKNDHFGSAAEMVTNAKMRKLIKTAQVWLSQQRTMNTIDYRFDVIAIHDSGRDINWIQNAISEG”, the protein production is reported as “failed”.
In the case of “MGHHHHHHSHMAAPEAEVLSSAAVPDLEWYEKSEETHASQIELLETSSTQEPLNASEAFCPRDCMVPVVFPGPVSQEGCCQFTCELLKHIMYQRQQLPLPYEQLKHFYRKPSPQAEEMLKKKPRATTEVSSRKCQQALAELESVLSHLEDFFARTLVPRVLILLGGNALSPKEFYELDLSLLAPYSVDQSLSTAACLRRLFRAIFMADAFSELQAPPLMGTVVMAQGHRNCGEDWFRPKLNYRVPSRGHKLTVTLSCGRPSIRTTAWEDYIWFQAPVTFKGFRE”, the protein production is reported as “failed”.
For “MRKGQETRERVVAQAAALFNVSGYAGTAISDIMAATGLEKGGIYRHFESKEQLALAAFDYAAEKVRERFAVGLAGHKHTVDTIIAFLDVFRSYAERPPLVGGCPILNTAIESDDTNPMLRERVRAVIDEWRETIRTLVQTGIARGEIRPEVDADRLALLIIATMEGAVMLARILETATPLEHAYTHLATYITQQVRLA”, the protein production was “not failed”.
With “MKEIALLAIARYGDLIQTTPLVRALRRAHPGARITAIVEDRFCGILPLLPGIDRTIVLNKQDIAWDIATGDSPLVPYLKMDEFVRKLEEGSYDLLVNITCSRLSAFFASCVTSRRRTGISADEAGERNIVTLEHHHHHH” the protein production was “failed”.
For “MLAVKIFDRLPLALVITNASHSVLYANDAFKLMVCLQPDDILAFNPEQFFSPSEPHEIASLFNHLSEGKMWQGELVGLRNNGETFYLDLTVTVFRESHSADLGFAWLFSDVSERKKAAQLEHHHHHH”, the protein production was “not failed”.
For “MADVGSLGTRLLRIVLGLCALVLVLLALYVSLGRQLVPLVAEYRQQLEDEAGKQLGIPVRIAELTGSWRGFEPLVVARDIQVGDGEQSLRLARVRLAPDLLGSLLARQVRIGSLELEGLKLTLREGEDGQWSLDGLPHSDKPSDPRKLLQFLLQTQRISLLDSQLEVAPRGSAALSLSAVGATLRSSSVGGQSLDARLQLPDGQPLALHAEGRIDSEDWPRSSARFYLSLPQSDWAQWLPAGLTQEWTIVRAKAGGDFWFDWRDGKAQRLVARLLAPQLKASYAARKPVEINDLGMNLFFDREAQGWKVRVGDLAANFGEQRWGEVELLLRRDQQNNEPHWKLQADRVDLTPLVPAIEALAPLPDAAAEWVAGLKPKGILHNLNADFWPQREVPERVSYATNLEKVGISAFHEVPAVENVSGTLTGTLAGGQLDASAQDFMLHLAKVFPEPWRYREARTRMFWSLDDRAFTLGSHLMRVEGEEGSLAGDMLIRLMRDPGAEDYMDLQVGLSDGDARFTAKYLPTQLPGMNKSLANWLKTAIRSGHVEQGYFQWQGSLNRGAAAEAHVMNLYFKVRDGELAYQPGWPALSKTVGEVFVEDSGVRVLASSGNLLNSRVSDVKVDIPLGRPGQTPHLYVDGAVDSNLKDGIKLLQEAPIPTRKIFAGWEGDGPLQGHLTLDIPLDHDEAGKTGVVVDFSTVGATLKMPSPKLDMSEVKGDFRFDLAKGLSAPAVQARVLGSEVRGRIVAEGRGDARTRLLLNGQVAVKSLSDWLGAGQRPLPVSGRLPFQLNLLLDGKDSQLQIDSDLKGAVVDLPAPFGKTAAQARPTQWRMTLDGAERRYWARYDGLASLAYAAPADKPLNGRGALRLGGDPALLPSAQGLRVRGRLAELDWDAWQATLKRYGNGDQAASSAAGLLRGADLRIDSFKGFGQELKNLTVDLARQERAWQLVLVSDLASGRLVLPDARGAPIVVDLDRLNLPKSTLPDENKVEDSDPLAAVDPRSLPAVDVKIGQVALGGQPLGAWSLKVRPGSNGVAFNDLDLDLRGLHVNGSLRWDGSPGNTRSTYQGRIEGKNLADVLKAWNFAPSATSERFRMDINGQWPGSPAYMALKRFSGSMDASLRKGQFVEVEGSAQALRVFGLLNFNAINRRLRLDFSDILGKGLSYDRVKGVLSATDGVYVTREPLKLEGPSSNLELNGTLDLAHDRIDAKLLVTLPLTNNLTLAALIVGGPAVGGAVFVVDKLLGDRVSRFASVQYSVKGPWQDPKISFDKPFEKPR”, the protein production was “failed”.
In the case of “MKKTLPKTEAPSSVGNGSDSPIEFDAIIRQVPDMDAAYVEIPFDVKTVYGKGRVRVNATFDGYPYTGYIVRMGLPCHILGLRQDIRRAIGKQPGDSVYVTLLPL”, the protein production is reported as “not failed”.
